Measurements reported in the supplement of paper PMC9170038.

Test system: K4 kissing-loop RNA reporter
Assay: apparent KD of K4 kissing-loop reporter; higher = weaker reporter binding
Conditions: Eterna round: R107
Experimental: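 RNA-MaP round R107: designed RNA switches with theophylline, tryptophan, arginine or FMN aptamers are transcribed on-chip within common flanks. They are titrated with a labelled K4 kissing-loop RNA reporter in RNA-MaP buffer (100 mM Tris pH 7.5, 80 mM KCl, 4 mM MgCl2), without ligand or with the indicated ligand. Median apparent KD per design.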

[1] = input ligand: theophylline 20 uM
[2] = input ligand: tryptophan 2.4 mM
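Further: bound reporter read as fluorescence of individual clusters on recovered sequencing chips by microscopy, with normalized cluster intensities fitted with a binding model.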

| Sequence | apparent KD of K4 kissing-loop reporter (input ligand: FMN 200 uM) | apparent KD of K4 kissing-loop reporter (input ligand: arginine 13.2 mM) | apparent KD of K4 kissing-loop reporter (input ligand: none) | apparent KD of K4 kissing-loop reporter [1] | apparent KD of K4 kissing-loop reporter [2] |
| --- | --- | --- | --- | --- | --- |
| CCCUCACGAGUGAUGUUCGUAGGGUACAGUCAGGAUAUCAUGCGGUUGAGAAGGGACAGAGAGGGCGGCGGCGGGUUGCUCAUCG [Rabele] | 150 nM | 125 nM | 153 nM | 166 nM | 124 nM |
| CCGAAGAACCAGUGAUGUUGGUUGACUAGACAGGAUAUGAGCAACAUCAGAAGGGUCUGGCUUCGGGAGUGGGCCGCGCUGACCU [Artilati] | 324 nM | 193 nM | 240 nM | 1210 nM | 395 nM |
| CCGAUGGGUACAGGAUAUGCCAGUGAUGUUGGUUUAGAUGGACCCAUAAGGAGACACCAGACGGAGGCAGAAGGGUAGCAAGGGA [Isonanti] | 127 nM | 110 nM | 101 nM | 118 nM | 120 nM |
| CCGGGCGGCUGAAGGAGCGGGCGGGCCCGAGUGAUGUUCGGGUGGGCCGUGAGGUCCGGUGCCCAGGUAGGUCGCGGUUCCGCCC [#2 Same State - Arginine B Attempt #10 (HarryS)] | 200 nM | 169 nM | 262 nM | 215 nM | 164 nM |
| CCGUAGCGAUCGGCCGCCACUCAAGAUCGCCAACUAUCACACGGUUCUCCCGAGUGAUGUUCUAGGAGGACCGGGAUUGUUGCUC [theeternabot_exclusion_KL_Trp_B_13] | 421 nM | 322 nM | 378 nM | 374 nM | 388 nM |
| CCUAUCUCAUACGAUACCAGUCUACGAUAUUUUAUCGUUGCCAACACCGAGUGAUGUUCGGACCCUUGGCAGCGUAUGGGAUAGG [#03 K4 Theophylline B Exclusion] | 159 nM | 129 nM | 143 nM | 138 nM | 136 nM |
| CCUAUCUCAUACGAUACCAGUCUAUUGUUACGAGUGAUGUUCGAAUAUUUGCCAUUCAAUGACCCUUGGCAGCGUAUGGGAUAGG [Ex Theophylline B K4 10] | 502 nM | 519 nM | 525 nM | 548 nM | 486 nM |
| CCUCACGUAGGACUAGUGAUGUUAGACUACCGAGGACCGGUACGGCCGCCACUCGUCGUACAAGAUAACCUUCCGCCAGUAUACG | 110 nM | 85.1 nM | 98.9 nM | 88.4 nM | 140 nM |
| CGAGUGAUGUUCGUUUUUUACUCUGUUUGACAGGAUAUGCGGAAACGCAGAAGGGUCACCUUUGAGUUAAACGGAGUUAUUUUUU [Ex FMN A 20] | 419 nM | 296 nM | 366 nM | 306 nM | 320 nM |
| CGAUACGGAAAUACGUGUCUCUAUUCAGAAGGAGCGUGGUAGUACACAGGUAGGUCGCUGAAAUUUAAACUAGUGAUGUUAGACU [JR_SSArginiA_Sub004] | 1330 nM | 742 nM | 1190 nM | 884 nM | 905 nM |
| CGCAAGCAGCUAGUGAUGUUGGCCGCCUUGCGAGGACCGGUACGGCCGCCACUCGGAGGCGGCUACUGAUAAACCGUCUAACGGA [KL-XTryp-A10] | 87.5 nM | 67.2 nM | 84.3 nM | 70.6 nM | 224 nM |
| CGCAGUGAUGUUGCGAGUAGCUACAGGGAAGGAGCGUGCUAGAGCACAGGUAGGUCGCCCAGUGGCAGUGAUGUUGCCAAAGGGU [Exclusion ARginine A GF 17] | 126 nM | 119 nM | 118 nM | 126 nM | 116 nM |
| CGCCGCAAGGCGAGCGCUCCCACUCCGGAAGGAGCGCCCGAAAGGGCAGGUAGGUCGCCGGAGUGAUGUUCCGGUGGAGGGCUCG [#2 Exclusion - Arginine A Attempt #27 (Inspired by Omei)] | 379 nM | 185 nM | 432 nM | 360 nM | 529 nM |
| CGCCGGAAGGCGAGCGCUCCCACUCCGGAAGGAGCGCCCGAAAGGGCAGGUAGGUCGCCGGAGUGAUGUUCCGGUGGAGGGCUCG [#2 Exclusion - Arginine A Attempt #29 (Inspired by Omei)] | 125 nM | 119 nM | 121 nM | 371 nM | 187 nM |
| CGCGCGCGUUGAGAGGUGCGCGCGAAUGAUACCAGUAUAUAAGAAUACCCUUGGCAGCAUAAGAAAGAUAUAGUGAUGUUGUAUA [SSTheophA.F] | 346 nM | 130 nM | 250 nM | 308 nM | 228 nM |
| CGGAUGUAGUGAUGUUAUAUUAGAUGUAGACGAGGACCGGUACGGCCGCCACUCGAAACGGCUACUAGCGCGUUGCGAGGUGUGC [ExTryptoA.CJ] | 737 nM | 525 nM | 686 nM | 784 nM | 480 nM |
| CGUAAGGAUUGACGACUGCAGAGCAAAAUAAAGGAUAUCGCAGCGUCGAGAAGGUUAUCGUGCGCCAGUGAUGUUGGCGGUAGUC [theeternabot_sameState_KL_FMN_A_22] | 84.1 nM | 135 nM | 108 nM | 181 nM | 87 nM |
| CGUACGGUUUCUUUCUUUCCGUACGCGUGCCGAGGACCGGUACGGCCGCCACUCGCUACAGCCUAGUGAUGUUAGGCAAUUCUUU | 107 nM | 111 nM | 112 nM | 124 nM | 89.9 nM |
| CGUCACAAACCUAGUCAAGUGAUGUUUGGCCGAGGACCGGUACGGCCGCCACUCGCUCCUGUCACCCAUUCGUGUGUCGCGGACU [theeternabot_exclusion_KL_Trp_A_5] | 377 nM | 148 nM | 316 nM | 473 nM | 297 nM |
| CGUUUAUAGCAGGAUACCAGUACCCAUAAAGUACGUUAAUAGUAGAGUGAUGUUCUGAAGUACCCUUGGCAGCUUCCGGUAAGUG [#25 K4 Theophylline B Exclusion] | 163 nM | 342 nM | 239 nM | 298 nM | 134 nM |
| CUAACGGUACGAGUGAUGUUCAGCAAGGAUACCAGCGGACAGUCACGCCCUUGGCAGCCUAGUUUCUACCCGUCGGAAUUUCUUA [theeternabot_sameState_KL_Theo_A_2] | 623 nM | 366 nM | 599 nM | 461 nM | 527 nM |
